Experimental data published in US20240228627A1, “GALECTIN-1-SPECIFIC MONOVALENT ANTIBODIES AND USES THEREOF” (INSTITUT NATIONAL DE LA RECHERCHE SCIENTIFIQUE, priority 2021, published 2024).
Entries after “also recorded” stand apart in the source; their conditions may differ.

Key:
human GAL-7 [1] = target: T1, human GAL-7 (Homo sapiens, UniProt P47929); experiment: microscale thermophoresis (MST) binding, human GAL-7; conditions: at 10 μM; Red-NHS labeled G1N1 (2 nM)
T1 construct: made in house; host or cells: E. coli BL21 (DE3), pET-22b(+)
Description: (§1) FIGS. 9A-C show the binding affinities evaluated by microscale thermophoresis (MST) using various ligands over a range of 16 ligand concentrations allowing to obtain a full concentration-response curve. FIG. 9A: Red-NHS labeled human GAL-1 (5 nM) incubated with G1N1 or alpha-lactose (a-lactose). FIG. 9B: Red-NHS labeled G1N1 (2 nM) was used to study the affinity of G1N1 for mouse and human galectin-1. […] All experiments were performed in 20 mM Tris-HCl 150 mM NaCl and 0.1% F127. Binding affinities (Kd values) were determined from the fitted curves (three parameter dose-response curve) obtained from data of at least 3 independent experiments. For each value, 95% confidence intervals (Cl) are indicated.
(§2) Microscale thermophoresis (MST. Galectins were labeled using the RED-NHS labeling kit (Nanotemper Technologies, Germany) in accordance with the manufacturer's protocol. Unreacted dye was removed using the provided purification columns. Binding affinity assays were performed in 20 mM Tris-HCl, 150 mM NaCl and 0.1% F127. Samples were loaded into standard Monolith NT.115 capillaries and microscale thermophoresis was measured using a Monolith NT.115 Pico instrument (Nanotemper Technologies, Germany) at ambient temperature. Binding affinities (Kd values) were determined from the fitted curves (three parameter dose-response curve).

[2] = target: T2, GAL-1-Biotin (biotinylated human GAL-1) (Homo sapiens, UniProt P09382); experiment: non-adsorbed phage ELISA of VHH clones on GAL-1-Biotin; type: binding; conditions: HRP-conjugated anti-M13 antibody, TMB substrate; 282 clones tested
T2 construct: made in house; host or cells: E. coli BL21 (DE3), pET-22b(+)
Description: Generation and production of single chain camelid antibodies. Galectin-specific single chain (VHH) camelid antibodies were obtained following in vitro screening of a non-immune humanized synthetic single domain antibodies (hsd2Ab) library that contains more than 3×10^9 clones expressed at the surface of M13 phage [Moutel et al., 2016]. The panning was carried out against immobilized recombinant human galectin-1 devoid of carbohydrate in its glycan binding site (GBS). Prior to the phage display selection, galectin-1-biotin and GST-Biotin were bound to streptavidin magnetic beads (Dynabeads® M-280 Streptavidin, Life Technologies) with a 50 nM final concentration of biotinylated protein for the first round and 10 nM final concentration of biotinylated protein for the second and third rounds. […] Following three-rounds of phage display, clones were picked randomly and analyzed by non-adsorbed phage ELISA using HRP-conjugated anti-M13 antibody (GE Healthcare) and a colorimetric substrate (TMB, tetramethylbenzidine, Thermo Fischer).
Following an initial pre-screen round of phage display carried out with GST-biotin to deplete the library from unspecific binders, unbound VHHs were incubated with GAL-1-Biotin beads. […] A total of 282 VHHs were then picked and analyzed by ELISA for galectin-1 binders.

mouse GAL-7 = target: T3, mouse GAL-7 (Mus musculus, UniProt O54974); experiment: microscale thermophoresis (MST) binding, mouse GAL-7; conditions: at 10 μM; Red-NHS labeled G1N1 (2 nM)
T3 sequence (O54974 1-136): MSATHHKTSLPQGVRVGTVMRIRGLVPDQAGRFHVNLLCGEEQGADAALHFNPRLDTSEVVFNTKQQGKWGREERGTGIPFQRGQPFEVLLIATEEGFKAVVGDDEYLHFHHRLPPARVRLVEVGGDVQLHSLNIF
Description: as §1, §2

human GAL-13 = target: T4, human GAL-13 (Homo sapiens, UniProt Q9UHV8); experiment: microscale thermophoresis (MST) binding, human GAL-13; conditions: at 10 μM; Red-NHS labeled G1N1 (2 nM)
T4 construct: made in house; host or cells: E. coli BL21 (DE3), pET-22b(+)
T4 sequence (Q9UHV8 1-139): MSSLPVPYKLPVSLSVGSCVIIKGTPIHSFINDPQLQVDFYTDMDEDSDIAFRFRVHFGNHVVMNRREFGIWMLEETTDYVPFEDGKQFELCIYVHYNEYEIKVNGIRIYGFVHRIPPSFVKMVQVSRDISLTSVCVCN
Description: as §1, §2

[3] = tested on: human galectin-1 versus galectin-2, -7, -13 and -16; experiment: ELISA binding of G1N1 to immobilized recombinant human galectins; conditions: human galectins immobilized at 1 and 5 μM; increasing concentrations of G1N1
Description: Briefly, human galectins were immobilized at 1 and 5 μM for 16 h at 4° C. After a blocking step with PBS containing 10% (v/v) BSA (blocking buffer), increasing concentrations of G1N1 were added to each well and incubated for 1 h at room T° C. […] The colorimetric assay was carried out with 3,3′,5,5′-tetramethylbenzidine (Sigma-Aldrich, ON, Canada) according to the manufacturers recommendations.
ELISA assays. Recombinant human galectins were immobilized in 96-well plates at the indicated concentrations for 16 h at 4° C. After a blocking step with PBS containing 10% (v/v) bovine serum albumin (BSA) (blocking buffer), increasing concentrations of G1N1 were added to each well and incubated for 1 h at room temperature. […] The colorimetric assay was carried out with TMB (Sigma-Aldrich, MO, USA) according to the manufacturer's recommendations.

human GAL-7 [4] = target: T1, human GAL-7; experiment: inhibition of GAL-7-induced apoptosis of Jurkat T cells (annexin V/propidium iodide flow cytometry); type: cell-based; conditions: human GAL-7 10 μM, 4 h at 37° C.
human GAL-8 = target: T5, human GAL-8 (Homo sapiens, UniProt O00214); experiment: microscale thermophoresis (MST) binding, human GAL-8; conditions: at 10 μM; Red-NHS labeled G1N1 (2 nM)
T5 sequence (O00214 1-317): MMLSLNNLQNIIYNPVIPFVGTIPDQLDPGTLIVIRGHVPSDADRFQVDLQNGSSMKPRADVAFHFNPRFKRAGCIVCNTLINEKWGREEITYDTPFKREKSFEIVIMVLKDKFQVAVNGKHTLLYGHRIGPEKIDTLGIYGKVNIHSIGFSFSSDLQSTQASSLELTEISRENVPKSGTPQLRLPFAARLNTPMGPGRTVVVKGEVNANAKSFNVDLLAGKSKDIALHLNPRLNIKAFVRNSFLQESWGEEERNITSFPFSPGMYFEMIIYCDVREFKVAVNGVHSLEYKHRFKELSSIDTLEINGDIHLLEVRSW
Description: as §1, §2

human galectin-1 = target: T6, human galectin-1 (Homo sapiens, UniProt P09382); experiment: microscale thermophoresis (MST) binding affinity, human galectin-1
T6 construct: made in house; host or cells: E. coli BL21 (DE3), pET-22b(+)
Description: as §1, §2

[5] = target: T7, recombinant human GAL-1 (rhGAL-1) (Homo sapiens, UniProt P09382); experiment: inhibition of galectin-1-induced apoptosis of Jurkat T cells (annexin V/propidium iodide flow cytometry); type: cell-based; conditions: rhGAL-1 2.25 μM, 4 h at 37° C., increasing concentrations of nanobody
T7 construct: made in house; host or cells: E. coli BL21 (DE3), pET-22b(+)
Description: Briefly, Jurkat T cells were incubated with recombinant human GAL-1 (rhGAL-1; 2.25 μM) for 4h at 37° C. in presence of increasing concentrations of G1N1 and G1N2. Apoptosis was measured by flow cytometry using conventional annexin V/propidium iodide staining. Results represent data recorded on 5000 cells. Errors bars represent standard deviation.
Jurkat T cells were incubated with increasing concentrations of G1N1 pre-incubated with rhGAL-1 (2.25 μM) for 4 h at 37° C., after which apoptosis was measured by flow cytometry using Annexin V/propidium iodide staining. 5000 events were recorded. Errors bars represent standard deviation.
Apoptosis of human T cells. In vitro apoptosis assays were carried out using the standard in vitro human Jurkat T cell model system, fluorescein isothiocyanate (FITC)-labeled annexin V (Biolegend, San Diego, CA, USA) and propidium iodide (PI). Briefly, recombinant galectin-1 was pre-incubated for 1 h at 4° C. in serum free RPMI 1640 medium before addition to Jurkat cells. The mixture was incubated at 37° C. for 4 h. Cells were then washed once in PBS and once in binding buffer (0.01 M HEPES, 0.14 M NaCl, 2.5 mM CaCl2, pH 7.4). For staining, cells were incubated for 15 min with FITC-labeled annexin V in the dark at room temperature. The PI (0.25 μg/mL) stain was added to cells just before analysis by flow cytometry.

mouse galectin-1 = target: T8, mouse galectin-1 (Mus musculus, UniProt P16045); experiment: microscale thermophoresis (MST) binding affinity, mouse galectin-1; conditions: Red-NHS labeled G1N1 (2 nM); 20 mM Tris-HCl 150 mM NaCl 0.1% F127
T8 construct: made in house; host or cells: E. coli BL21 (DE3), pET-22b(+)
Description: as §1, §2

T1 sequence (P47929 whole entry): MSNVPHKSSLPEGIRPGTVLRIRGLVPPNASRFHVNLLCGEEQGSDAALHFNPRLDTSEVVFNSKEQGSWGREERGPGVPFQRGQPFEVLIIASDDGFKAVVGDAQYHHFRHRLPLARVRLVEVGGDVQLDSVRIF
T2 sequence (P09382 whole entry): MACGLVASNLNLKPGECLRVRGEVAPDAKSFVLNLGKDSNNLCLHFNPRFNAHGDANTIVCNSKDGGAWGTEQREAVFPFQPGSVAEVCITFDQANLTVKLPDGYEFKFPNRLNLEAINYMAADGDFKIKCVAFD
T6 sequence (P09382 whole entry): as above
T7 sequence (P09382 whole entry): as above
T8 sequence (P16045 whole entry): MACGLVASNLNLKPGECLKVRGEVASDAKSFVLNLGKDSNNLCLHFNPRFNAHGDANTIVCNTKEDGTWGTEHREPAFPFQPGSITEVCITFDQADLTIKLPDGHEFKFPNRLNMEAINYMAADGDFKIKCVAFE

B1: G1N1: galectin-1-specific single-domain camelid VHH nanobody, SEQ ID NO:8; lead clone from phage display of a humanized synthetic library (protein)
VHH: MAEVQLQASGGGFVQPGGSLRLSCAASGSTFSEDAMGWFRQAPGKEREFVSAISGFANPHSYYADSVKGRFTISRDNSKNTVYLQMNSLRAEDTATYYCAASHKKTRAPAATFETYWGQGTQVTVSS
modifications: full sequence of G1N1 VHH
- binding to human GAL-7 by MST (human GAL-7 [1]): does not bind; also recorded: no binding was detected
- binding in phage ELISA in the presence of GAL-1-Biotin [2]: strong binding; also recorded: strong positive hit
- binding to mouse GAL-7 by MST (mouse GAL-7): does not bind; also recorded: no binding was detected
- binding to human GAL-13 by MST (human GAL-13): does not bind; also recorded: no binding was detected
- specificity for galectin-1 by ELISA against galectin-2, -7, -13 and -16 [3]: specificity of G1N1 for galectin-1 was confirmed
- inhibition of GAL-7-induced apoptosis of Jurkat T cells (human GAL-7 [4]): did not inhibit; also recorded: No significant inhibition
- binding to human GAL-8 by MST (human GAL-8): does not bind; also recorded: no binding was detected
- affinity for galectin-1 relative to the affinity of lactose for galectin-1 (human galectin-1; MST, Red-NHS labeled human GAL-1 (5 nM) with G1N1 or alpha-lactose): approximately 200 fold
- binding affinity (Kd) for human recombinant galectin-1 by MST (human galectin-1; Red-NHS labeled G1N1 (2 nM), 20 mM Tris-HCl 150 mM NaCl 0.1% F127): in the nanomolar range
- inhibition of galectin-1-induced apoptosis of Jurkat T cells [5]: strong and significant inhibition
- binding affinity (Kd) for mouse recombinant galectin-1 by MST (mouse galectin-1): in the nanomolar range
